Source: patent US20210230570
Where a chain is given by its changes, count along the chain named. Names may count otherwise.

Molecular target: Factor X (FX), P00742
Sequence (P00742 whole entry, looked up): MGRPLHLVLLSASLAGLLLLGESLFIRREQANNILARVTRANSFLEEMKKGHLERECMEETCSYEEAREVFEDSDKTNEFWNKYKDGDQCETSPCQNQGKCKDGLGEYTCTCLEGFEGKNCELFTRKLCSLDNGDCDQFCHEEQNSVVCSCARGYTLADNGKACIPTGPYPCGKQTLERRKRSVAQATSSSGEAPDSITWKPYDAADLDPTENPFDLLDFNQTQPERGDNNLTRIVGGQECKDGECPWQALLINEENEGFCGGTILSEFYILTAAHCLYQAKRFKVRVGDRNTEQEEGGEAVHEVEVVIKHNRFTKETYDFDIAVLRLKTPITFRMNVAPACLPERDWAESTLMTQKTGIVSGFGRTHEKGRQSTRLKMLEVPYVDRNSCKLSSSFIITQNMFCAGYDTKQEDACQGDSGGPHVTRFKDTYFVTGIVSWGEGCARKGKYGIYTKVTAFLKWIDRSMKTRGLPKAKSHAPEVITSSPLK

B1: FIXa-Y155F/K247N/N249S/R318Y/R403E (protein)
chain 1: YNSGKLEEFVQGNLERECMEEKCSFEEAREVFENTERTTEFWKQYVDGDQCESNPCLNGGSCKDDINSYECWCPFGFEGKNCELDVTCNIKNGRCEQFCKNSADNKVVCSCTEGYRLAENQKSCEPAVPFPCGRVSVSQTSKLTR
chain 2: VVGGEDAKPGQFPWQVVLNGKVDAFCGGSIVNEKWIVTAAHCVETGVKITVVAGEHNIEETEHTEQNRSVIRIIPHHNYNAAINKYNHDIALLELDEPLVLNSYVTPICIADKEYTNIFLKFGSGYVSGWGRVFHKGYSALVLQYLRVPLVDRATCLRSTKFTIYNNMFCAGFHEGGRDSCQGDSGGPHVTEVEGTSFLTGIISWGEECAMKGKYGIYTKVSEYVNWIKEKTKLT
- kcat: 1.7 s⁻¹

B2: FIXa-Y155F/K247N/N249S/R318Y/E410N (protein)
chain 1: B1 chain 1
chain 2: B1 chain 2 with E223R, E230N
- kcat: 3.4 s⁻¹

B3: FIXa-R318Y/R338E/T343R (protein)
chain 1: B1 chain 1
chain 2: B1 chain 2 with N67K, S69N, R158E, T163R, E223R
- kcat: 4.5 s⁻¹
- kcat/KM: 1.5e+08 M⁻¹ s⁻¹

B4: FIXa-Y155F/K247N/N249S/R338E/E410N (protein)
chain 1: B1 chain 1
chain 2: B1 chain 2 with Y138R, R158E, E223R, E230N
- kcat: 7.3 s⁻¹
- kcat/KM: 4.7e+08 M⁻¹ s⁻¹

B5: FIXa-Y155F/K247N/N249S/R318Y/T343R/R403E (protein)
chain 1: B1 chain 1
chain 2: B1 chain 2 with T163R
- kcat: 7.5 s⁻¹
- kcat/KM: 1.3e+08 M⁻¹ s⁻¹

B6: FIXa variant R318Y/R338E/R403E (mature FIX numbering) (protein)
chain 1: B1 chain 1
chain 2: B1 chain 2 with N67K, S69N, R158E
- KM of FX activation by FIXa in the Xase complex (FVIIIa, PC/PS vesicles, Ca2+): 0.0597 µM

B7: FIXa-Y155F/K247N/N249S/R318Y/R338E/T343R/E410N (protein)
chain 1: B1 chain 1
chain 2: B1 chain 2 with R158E, T163R, E223R, E230N
- kcat: 7.7 s⁻¹
- kcat/KM: 5e+08 M⁻¹ s⁻¹

B8: FIXa-Y155F/K247N/N249S/R338E/R403E (protein)
chain 1: B1 chain 1
chain 2: B1 chain 2 with Y138R, R158E
- kcat: 5.3 s⁻¹
- kcat/KM: 1.4e+08 M⁻¹ s⁻¹

B9: FIXa variant D203N/F205T/R338A (mature FIX numbering) (protein)
chain 1: B1 chain 1
chain 2: B1 chain 2 with D23N, F25T, N67K, S69N, Y138R, R158A, E223R
- KM of FX activation by FIXa in the Xase complex (FVIIIa, PC/PS vesicles, Ca2+): 0.0385 µM

B10: FIXa-Y155F/K247N/N249S/R318Y/T343R/R403E/E410N (protein)
chain 1: B1 chain 1
chain 2: B1 chain 2 with T163R, E230N
- kcat: 9 s⁻¹
- kcat/KM: 1.6e+08 M⁻¹ s⁻¹

B11: FIXa-Y155F/R318Y/R338E/T343R (protein)
chain 1: B1 chain 1
chain 2: B1 chain 2 with N67K, S69N, R158E, T163R, E223R
- kcat: 7.9 s⁻¹
- kcat/KM: 3.6e+08 M⁻¹ s⁻¹

B12: FIXa variant R338E/R403E/E410N (mature FIX numbering) (protein)
chain 1: B1 chain 1
chain 2: B1 chain 2 with N67K, S69N, Y138R, R158E, E230N
- KM of FX activation by FIXa in the Xase complex (FVIIIa, PC/PS vesicles, Ca2+): 0.0367 µM

B13: FIXa variant K228N/R318Y/E410N (mature FIX numbering) (protein)
chain 1: B1 chain 1
chain 2: B1 chain 2 with K48N, N67K, S69N, E223R, E230N
- KM of FX activation by FIXa in the Xase complex (FVIIIa, PC/PS vesicles, Ca2+): 0.042 µM

B14: FIXa-Y155F/K247N/N249S/R338E/T343R (protein)
chain 1: B1 chain 1
chain 2: B1 chain 2 with Y138R, R158E, T163R, E223R
- kcat: 10.6 s⁻¹
- kcat/KM: 7.3e+08 M⁻¹ s⁻¹

B15: FIXa-Y155F/T343R/R403E/E410N (protein)
chain 1: B1 chain 1
chain 2: B1 chain 2 with N67K, S69N, Y138R, T163R, E230N
- kcat: 6.6 s⁻¹
- kcat/KM: 1.5e+08 M⁻¹ s⁻¹

B16: FIXa-K247N/N249S/R318Y/T343R/R403E (protein)
chain 1: B1 chain 1
chain 2: B1 chain 2 with T163R
- kcat: 3.7 s⁻¹
- kcat/KM: 3.9e+07 M⁻¹ s⁻¹

B17: FIXa variant K228N/R338E/R403E (mature FIX numbering) (protein)
chain 1: B1 chain 1
chain 2: B1 chain 2 with K48N, N67K, S69N, Y138R, R158E
- KM of FX activation by FIXa in the Xase complex (FVIIIa, PC/PS vesicles, Ca2+): 0.0592 µM

B18: FIXa variant R318Y/R338E/E410N (mature FIX numbering) (protein)
chain 1: B1 chain 1
chain 2: B1 chain 2 with N67K, S69N, R158E, E223R, E230N
- KM of FX activation by FIXa in the Xase complex (FVIIIa, PC/PS vesicles, Ca2+): 0.0139 µM

B19: FIXa variant D203N/F205T/R338E (mature FIX numbering) (protein)
chain 1: B1 chain 1
chain 2: B1 chain 2 with D23N, F25T, N67K, S69N, Y138R, R158E, E223R
- KM of FX activation by FIXa in the Xase complex (FVIIIa, PC/PS vesicles, Ca2+): 0.0241 µM

B20: FIXa-K247N/N249S/T343R/R403E/E410N (protein)
chain 1: B1 chain 1
chain 2: B1 chain 2 with Y138R, T163R, E230N
- kcat: 8 s⁻¹
- kcat/KM: 1.3e+08 M⁻¹ s⁻¹

B21: FIXa variant D203N/F205T/E410N (mature FIX numbering) (protein)
chain 1: B1 chain 1
chain 2: B1 chain 2 with D23N, F25T, N67K, S69N, Y138R, E223R, E230N
- KM of FX activation by FIXa in the Xase complex (FVIIIa, PC/PS vesicles, Ca2+): 0.0455 µM

B22: FIXa variant D104N/K106S/R318Y/R338E/E410N (mature FIX numbering) (protein)
chain 1: B1 chain 1 with D104N, K106S
chain 2: B1 chain 2 with N67K, S69N, R158E, E223R, E230N
- KM of FX activation by FIXa in the Xase complex (FVIIIa, PC/PS vesicles, Ca2+): 0.0189 µM

B23: FIXa-K247N/N249S/R318Y/T343R/E410N (protein)
chain 1: B1 chain 1
chain 2: B1 chain 2 with T163R, E223R, E230N
- kcat: 6.1 s⁻¹
- kcat/KM: 2e+08 M⁻¹ s⁻¹

B24: FIXa variant Y155F/R318Y/R338E/R403E (mature FIX numbering) (protein)
chain 1: B1 chain 1
chain 2: B1 chain 2 with N67K, S69N, R158E
- KM of FX activation by FIXa in the Xase complex (FVIIIa, PC/PS vesicles, Ca2+): 0.0671 µM

B25: FIXa variant R318Y/R338E/R403E/E410N (mature FIX numbering) (protein)
chain 1: B1 chain 1
chain 2: B1 chain 2 with N67K, S69N, R158E, E230N
- KM of FX activation by FIXa in the Xase complex (FVIIIa, PC/PS vesicles, Ca2+): 0.0432 µM

B26: FIXa variant D203N/F205T/K228N (mature FIX numbering) (protein)
chain 1: B1 chain 1
chain 2: B1 chain 2 with D23N, F25T, K48N, N67K, S69N, Y138R, E223R
- KM of FX activation by FIXa in the Xase complex (FVIIIa, PC/PS vesicles, Ca2+): 0.0399 µM

B27: FIXa-K247N/N249S/R318Y/R338E/T343R/E410N (protein)
chain 1: B1 chain 1
chain 2: B1 chain 2 with R158E, T163R, E223R, E230N
- kcat: 8.8 s⁻¹
- kcat/KM: 3.2e+08 M⁻¹ s⁻¹

B28: FIXa-Y155F/K247N/N249S/R318Y/T343R/E410N (protein)
chain 1: B1 chain 1
chain 2: B1 chain 2 with T163R, E223R, E230N
- kcat: 8.1 s⁻¹
- kcat/KM: 3.1e+08 M⁻¹ s⁻¹

B29: FIXa variant Y155F/R318Y/R338E/E410N (mature FIX numbering) (protein)
chain 1: B1 chain 1
chain 2: B1 chain 2 with N67K, S69N, R158E, E223R, E230N
- KM of FX activation by FIXa in the Xase complex (FVIIIa, PC/PS vesicles, Ca2+): 0.016 µM

B30: FIXa-K247N/N249S/R318Y/T343R/R403E/E410N (protein)
chain 1: B1 chain 1
chain 2: B1 chain 2 with T163R, E230N
- kcat: 9.5 s⁻¹
- kcat/KM: 1.3e+08 M⁻¹ s⁻¹

B31: FIXa variant R318Y/R403E/E410N (mature FIX numbering) (protein)
chain 1: B1 chain 1
chain 2: B1 chain 2 with N67K, S69N, E230N
- KM of FX activation by FIXa in the Xase complex (FVIIIa, PC/PS vesicles, Ca2+): 0.0942 µM

B32: FIXa variant Y155F/R338E/R403E/E410N (mature FIX numbering) (protein)
chain 1: B1 chain 1
chain 2: B1 chain 2 with N67K, S69N, Y138R, R158E, E230N
- KM of FX activation by FIXa in the Xase complex (FVIIIa, PC/PS vesicles, Ca2+): 0.0336 µM

B33: FIXa-Y155F/R318Y/T343R/R403E (protein)
chain 1: B1 chain 1
chain 2: B1 chain 2 with N67K, S69N, T163R
- kcat: 5 s⁻¹
- kcat/KM: 7.1e+07 M⁻¹ s⁻¹

B34: FIXa variant D203N/F205T/R338E/R403E (mature FIX numbering) (protein)
chain 1: B1 chain 1
chain 2: B1 chain 2 with D23N, F25T, N67K, S69N, Y138R, R158E
- KM of FX activation by FIXa in the Xase complex (FVIIIa, PC/PS vesicles, Ca2+): 0.0511 µM

B35: FIXa-Y155F/K247N/N249S/R338E/T343R/E410N (protein)
chain 1: B1 chain 1
chain 2: B1 chain 2 with Y138R, R158E, T163R, E223R, E230N
- kcat: 4.8 s⁻¹
- kcat/KM: 1.8e+08 M⁻¹ s⁻¹

B36: FIXa-Y155F/K247N/N249S/R338E/T343R/R403E (protein)
chain 1: B1 chain 1
chain 2: B1 chain 2 with Y138R, R158E, T163R
- kcat: 14.6 s⁻¹
- kcat/KM: 5.9e+08 M⁻¹ s⁻¹

B37: FIXa-Y155F/K247N/N249S/T343R/R403E/E410N (protein)
chain 1: B1 chain 1
chain 2: B1 chain 2 with Y138R, T163R, E230N
- kcat: 15 s⁻¹
- kcat/KM: 2.9e+08 M⁻¹ s⁻¹

B38: FIXa-K247N/N249S/R338E/T343R/E410N (protein)
chain 1: B1 chain 1
chain 2: B1 chain 2 with Y138R, R158E, T163R, E223R, E230N
- kcat: 7.9 s⁻¹
- kcat/KM: 3.1e+08 M⁻¹ s⁻¹

B39: FIXa variant Y155F/R318Y/R403E/E410N (mature FIX numbering) (protein)
chain 1: B1 chain 1
chain 2: B1 chain 2 with N67K, S69N, E230N
- KM of FX activation by FIXa in the Xase complex (FVIIIa, PC/PS vesicles, Ca2+): 0.111 µM

B40: FIXa variant A103N/N105S/R318Y/R338E/R403E/E410N (mature FIX numbering) (protein)
chain 1: B1 chain 1 with A103N, N105S
chain 2: B1 chain 2 with N67K, S69N, R158E, E230N
- KM of FX activation by FIXa in the Xase complex (FVIIIa, PC/PS vesicles, Ca2+): 0.0447 µM

B41: FIXa variant D203N/F205T/R318Y (mature FIX numbering) (protein)
chain 1: B1 chain 1
chain 2: B1 chain 2 with D23N, F25T, N67K, S69N, E223R
- KM of FX activation by FIXa in the Xase complex (FVIIIa, PC/PS vesicles, Ca2+): 0.0475 µM

B42: FIXa variant D104N/K106S/R318Y/R338E/R403E/E410N (mature FIX numbering) (protein)
chain 1: B1 chain 1 with D104N, K106S
chain 2: B1 chain 2 with N67K, S69N, R158E, E230N
- KM of FX activation by FIXa in the Xase complex (FVIIIa, PC/PS vesicles, Ca2+): 0.0385 µM
